Data taken from publication PMC9107513.

What was measured:
[1] = western blot, FLAG-tagged wild-type SERCA3 in C2C12; details: glycan lost; control: vector / control siRNA
[2] = western blot, endogenous SERCA3, C2C12 myotubes ± MG-132; details: glycan lost; control: vector / control siRNA

B1: human SERCA3: OGT knockdown (protein)
parent chain: MEAAHLLPAADVLRHFSVTAEGGLSPAQVTGARERYGPNELPSEEGKSLWELVLEQFEDLLVRILLLAALVSFVLAWFEEGEETTTAFVEPLVIMLILVANAIVGVWQERNAESAIEALKEYEPEMGKVIRSDRKGVQRIRARDIVPGDIVEVAVGDKVPADLRLIEIKSTTLRVDQSILTGESVSVTKHTEAIPDPRAVNQDKKNMLFSGTNITSGKAVGVAVATGLHTELGKIRSQMAAVEPERTPLQRKLDEFGRQLSHAISVICVAVWVINIGHFADPAHGGSWLRGAVYYFKIAVALAVAAIPEGLPAVITTCLALGTRRMARKNAIVRSLPSVETLGCTSVICSDKTGTLTTNQMSVCRMFVVAEADAGSCLLHEFTISGTTYTPEGEVRQGDQPVRCGQFDGLVELATICALCNDSALDYNEAKGVYEKVGEATETALTCLVEKMNVFDTDLQALSRVERAGACNTVIKQLMRKEFTLEFSRDRKSMSVYCTPTRPHPTGQGSKMFVKGAPESVIERCSSVRVGSRTAPLTPTSREQILAKIRDWGSGSDTLRCLALATRDAPPRKEDMELDDCSKFVQYETDLTFVGCVGMLDPPRPEVAACITRCYQAGIRVVMITGDNKGTAVAICRRLGIFGDTEDVAGKAYTGREFDDLSPEQQRQACRTARCFARVEPAHKSRIVENLQSFNEITAMTGDGVNDAPALKKAEIGIAMGSGTAVAKSAAEMVLSDDNFASIVAAVEEGRAIYSNMKQFIRYLISSNVGEVVCIFLTAILGLPEALIPVQLLWVNLVTDGLPATALGFNPPDLDIMEKLPRSPREALISGWLFFRYLAIGVYVGLATVAAATWWFVYDAEGPHINFYQLRNFLKCSEDNPLFAGIDCEVFESRFPTTMALSVLVTIEMCNALNSVSENQSLLRMPPWMNPWLLVAVAMSMALHFLILLVPPLPLIFQVTPLSGRQWVVVLQISLPVILLDEALKYLSRNHMHEEMSQK
expression_or_secretion [1]: decreases

B2: SERCA3: siRNA-mediated knockdown of OGT (protein)
parent chain: MEEAHLLSAADVLRRFSVTAEGGLSLEQVTDARERYGPNELPTEEGKSLWELVVEQFEDLLVRILLLAALVSFVLAWFEEGEETTTAFVEPLVIMLILVANAIVGVWQERNAESAIEALKEYEPEMGKVIRSDRKGVQRIRARDIVPGDIVEVAVGDKVPADLRLIEIKSTTLRVDQSILTGESVSVTKHTDAIPDPRAVNQDKKNMLFSGTNIASGKALGVAVATGLQTELGKIRSQMAAVEPERTPLQRKLDEFGRQLSHAISVICVAVWVINIGHFADPAHGGSWLRGAVYYFKIAVALAVAAIPEGLPAVITTCLALGTRRMARKNAIVRSLPSVETLGCTSVICSDKTGTLTTNQMSVCRMFVVAEAEAGTCRLHEFTISGTTYTPEGEVRQGEQPVRCGQFDGLVELATICALCNDSALDYNEAKGVYEKVGEATETALTCLVEKMNVFDTDLKGLSRVERAGACNSVIKQLMRKEFTLEFSRDRKSMSVYCTPTRADPKVQGSKMFVKGAPESVIERCSSVRVGSRTAPLSTTSREHILAKIRDWGSGSDTLRCLALATRDTPPRKEDMHLDDCSRFVQYETDLTFVGCVGMLDPPRPEVAACITRCSRAGIRVVMITGDNKGTAVAICRRLGIFGDTEDVLGKAYTGREFDDLSPEQQRQACRTARCFARVEPAHKSRIVENLQSFNEITAMTGDGVNDAPALKKAEIGIAMGSGTAVAKSAAEMVLSDDNFASIVAAVEEGRAIYNNMKQFIRYLISSNVGEVVCIFLTAILGLPEALIPVQLLWVNLVTDGLPATALGFNPPDLDIMEKPPRNPREALISGWLFFRYLAIGVYVGLATVAAATWWFLYDTEGPQVTFYQLRNFLKCSEDNPLFAGIDCKVFESRFPTTMALSVLVTIEMCNALNSVSENQSLLRMPPWLNPWLLGAVVMSMALHFLILLVPPLPLIFQVTPLSGRQWGVVLQMSLPVILLDEALKYLSRNHMDEKKDLK
expression_or_secretion [2]: decreases
